Measurements taken from US20050261472A1, “Binding moieties for fibrin” (Dyax Corp., priority 1999, published 2005).
Ends that are not written are not given here.

T1: fibrinogen (UniProt P02671 20-629; P02675 31-491; P02679 27-437, limits assumed)
T1 sequence (looked up) 1: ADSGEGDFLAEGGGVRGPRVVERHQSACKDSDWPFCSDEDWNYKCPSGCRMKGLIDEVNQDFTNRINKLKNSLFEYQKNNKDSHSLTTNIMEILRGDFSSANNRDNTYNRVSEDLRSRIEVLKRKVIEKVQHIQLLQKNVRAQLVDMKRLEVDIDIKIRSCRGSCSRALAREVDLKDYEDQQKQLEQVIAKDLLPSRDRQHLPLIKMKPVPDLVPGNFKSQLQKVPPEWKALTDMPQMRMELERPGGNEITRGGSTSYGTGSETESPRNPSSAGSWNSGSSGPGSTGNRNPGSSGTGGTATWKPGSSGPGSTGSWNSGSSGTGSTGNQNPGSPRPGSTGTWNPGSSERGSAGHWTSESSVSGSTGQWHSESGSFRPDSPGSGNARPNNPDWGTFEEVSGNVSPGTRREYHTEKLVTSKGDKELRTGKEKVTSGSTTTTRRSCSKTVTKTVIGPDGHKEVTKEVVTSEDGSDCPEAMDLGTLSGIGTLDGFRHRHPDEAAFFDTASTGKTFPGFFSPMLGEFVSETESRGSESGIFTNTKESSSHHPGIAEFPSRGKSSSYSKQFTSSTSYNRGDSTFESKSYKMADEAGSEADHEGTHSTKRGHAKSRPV
T1 sequence (looked up) 2: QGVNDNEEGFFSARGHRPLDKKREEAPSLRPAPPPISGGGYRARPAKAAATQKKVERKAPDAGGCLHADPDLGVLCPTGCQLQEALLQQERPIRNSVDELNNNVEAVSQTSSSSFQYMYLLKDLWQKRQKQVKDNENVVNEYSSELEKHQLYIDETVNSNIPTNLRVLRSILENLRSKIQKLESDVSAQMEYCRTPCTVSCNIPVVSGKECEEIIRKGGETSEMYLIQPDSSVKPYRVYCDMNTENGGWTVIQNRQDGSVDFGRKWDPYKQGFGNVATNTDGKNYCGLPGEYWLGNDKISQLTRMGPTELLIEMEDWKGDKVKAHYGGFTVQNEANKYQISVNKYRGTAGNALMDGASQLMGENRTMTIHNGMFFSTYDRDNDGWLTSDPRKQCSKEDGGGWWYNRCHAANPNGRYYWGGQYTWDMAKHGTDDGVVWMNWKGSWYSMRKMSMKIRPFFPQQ
T1 sequence (looked up) 3: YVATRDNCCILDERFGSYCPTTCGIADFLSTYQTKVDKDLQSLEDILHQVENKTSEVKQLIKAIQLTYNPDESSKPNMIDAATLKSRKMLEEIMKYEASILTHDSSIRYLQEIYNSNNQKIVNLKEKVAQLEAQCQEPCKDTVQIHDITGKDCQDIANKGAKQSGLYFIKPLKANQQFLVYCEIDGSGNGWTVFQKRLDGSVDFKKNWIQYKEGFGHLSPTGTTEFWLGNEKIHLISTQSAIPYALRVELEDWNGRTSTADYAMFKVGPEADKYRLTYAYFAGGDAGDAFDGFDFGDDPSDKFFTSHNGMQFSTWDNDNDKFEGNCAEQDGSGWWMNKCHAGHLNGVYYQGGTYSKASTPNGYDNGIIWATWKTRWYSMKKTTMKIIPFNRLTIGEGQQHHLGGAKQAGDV

T2: fibrin (Homo sapiens, UniProt P02671+P02675+P02679)
T2 construct: Thrombin cleavage at the Arg16-Arg17 bond in the Ax chains and at the Arg14-Gly15 bond on the BP chains releases fibrinopeptides A and B; host or cells: fibrinogen solution clotted with thrombin in 96-well plates and dried at 37 C
T2 sequence (P02671 36-629 limits assumed): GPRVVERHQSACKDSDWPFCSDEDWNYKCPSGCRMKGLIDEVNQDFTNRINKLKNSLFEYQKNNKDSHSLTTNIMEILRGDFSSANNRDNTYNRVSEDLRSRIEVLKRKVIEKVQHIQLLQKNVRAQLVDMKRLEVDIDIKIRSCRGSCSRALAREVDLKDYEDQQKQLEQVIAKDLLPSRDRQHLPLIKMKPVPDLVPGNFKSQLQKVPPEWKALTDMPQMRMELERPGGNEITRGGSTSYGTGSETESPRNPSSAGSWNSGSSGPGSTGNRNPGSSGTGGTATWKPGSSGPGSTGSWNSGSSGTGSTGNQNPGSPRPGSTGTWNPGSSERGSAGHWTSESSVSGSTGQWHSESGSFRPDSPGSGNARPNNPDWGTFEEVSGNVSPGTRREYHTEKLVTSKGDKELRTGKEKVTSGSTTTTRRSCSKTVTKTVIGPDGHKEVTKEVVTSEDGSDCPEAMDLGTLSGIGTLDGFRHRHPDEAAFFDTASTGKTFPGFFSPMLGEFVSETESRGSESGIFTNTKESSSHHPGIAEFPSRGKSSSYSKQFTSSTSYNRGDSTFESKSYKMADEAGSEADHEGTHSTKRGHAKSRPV
T2 sequence (P02675 45-491 limits assumed): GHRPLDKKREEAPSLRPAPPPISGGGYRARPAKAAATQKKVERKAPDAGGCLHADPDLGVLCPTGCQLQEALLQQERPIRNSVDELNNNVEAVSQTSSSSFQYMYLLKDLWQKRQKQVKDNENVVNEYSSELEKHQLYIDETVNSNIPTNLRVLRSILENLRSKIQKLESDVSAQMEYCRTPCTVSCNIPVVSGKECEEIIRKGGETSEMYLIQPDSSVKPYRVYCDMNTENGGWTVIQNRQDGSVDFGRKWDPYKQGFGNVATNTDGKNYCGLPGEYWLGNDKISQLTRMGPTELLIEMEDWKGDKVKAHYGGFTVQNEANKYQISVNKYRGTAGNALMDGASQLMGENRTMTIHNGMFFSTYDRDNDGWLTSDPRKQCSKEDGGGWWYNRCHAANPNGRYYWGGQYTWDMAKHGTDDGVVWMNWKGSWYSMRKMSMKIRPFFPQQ
T2 sequence (P02679 27-437 isoform P02679-2 limits assumed): T1 sequence (looked up) 3

B1: TN7 isolate 2, phage-displayed LSCDYYGTCLR (peptide)
peptide: LSCDYYGTCLR
modifications: not fully specified (bridges); cysteine pairing not given here
notes: Tested as a phage clone; not shown: not specified
B2: TN7 isolate 12, phage-displayed FSCWYSLHCHR (peptide)
peptide: FSCWYSLHCHR
modifications: not fully specified (bridges); cysteine pairing not given here
notes: as for B1
B3: TN7 isolate 8, phage-displayed DGCHYYGTCLH (peptide)
peptide: DGCHYYGTCLH
modifications: not fully specified (bridges); cysteine pairing not given here
notes: as for B1
B4: TN7 isolate 11, phage-displayed HDCQYYGTCLH (peptide)
peptide: HDCQYYGTCLH
modifications: not fully specified (bridges); cysteine pairing not given here
notes: as for B1
B5: TN7 isolate 4, phage-displayed DPCSYYGTCLH (peptide)
peptide: DPCSYYGTCLH
modifications: not fully specified (bridges); cysteine pairing not given here
notes: as for B1
B6: TN7 isolate 5, phage-displayed LPCSYYGTCLH (peptide)
peptide: LPCSYYGTCLH
modifications: not fully specified (bridges); cysteine pairing not given here
notes: as for B1
B7: TN7 isolate 1, phage-displayed RPCDYYGTCFD (peptide)
peptide: RPCDYYGTCFD
modifications: not fully specified (bridges); cysteine pairing not given here
notes: as for B1
B8: TN7 isolate 9, phage-displayed RSCNYYGTCLH (peptide)
peptide: RSCNYYGTCLH
modifications: not fully specified (bridges); cysteine pairing not given here
notes: as for B1
B9: TN7 isolate 10, phage-displayed RPCNYYGTCLH (peptide)
peptide: RPCNYYGTCLH
modifications: not fully specified (bridges); cysteine pairing not given here
notes: as for B1
B10: TN7 isolate 6, phage-displayed FACHYYGTCLH (peptide)
peptide: FACHYYGTCLH
modifications: not fully specified (bridges); cysteine pairing not given here
notes: as for B1
B11: TN7 isolate 7, phage-displayed LACHYYGTCLH (peptide)
peptide: LACHYYGTCLH
modifications: not fully specified (bridges); cysteine pairing not given here
notes: as for B1
B12: TN7 isolate 3, phage-displayed LPCDYYGTCLD (peptide)
peptide: LPCDYYGTCLD
notes: as for B1

Each molecule was assayed against T1, fibrinogen (assay: phage ELISA on immobilised fibrinogen). Details: not given.
Description: (§1) After five rounds of selection, the eluted phage were propagated and a portion plated to isolate phage plaques arising from individual clones. Ninety such clones were selected randomly, propagated, and tested individually for binding to fibrin in a dried fibrin plate assay. Dried fibrin plates were prepared as described above for the library screening. Phage samples (˜10⁹ phage each) were incubated in the dried fibrin plate wells in binding buffer (50 mM Tris, 150 mM NaCl, 2 mM CaCl₂, 0.05% Tween-20) containing 0.1% HSA. After 1 hour, the plates were washed 5 times with binding buffer. Anti-M13 antibody conjugated to horseradish peroxidase (Pharmacia) was added at 1/5000 dilution in binding buffer to the wells and incubated with the fibrin for 1 hour. The wells were again washed 5 times with binding buffer and the presence of the antibody/phage/fibrin complex was measured with HRP calorimetric reagents (3,3′,5,5′-tetrarnethylbenzidine (TMB) and H₂O₂). A high absorbance at 595 nm (due to oxidized TMB) was indicative of a tight phage/fibrin interaction, and phage clones corresponding to those wells were identified as bearing fibrin-binding moieties.
(§2) These fibrin-binding positive clones were subjected to several secondary ELISA assays. These assays followed a similar protocol to that detailed above for the dried fibrin ELISA assay, the only variations being the method of target immobilization and the omission of HSA from binding and wash buffers. A screen against DD(E) acted as a further confirmation of fibrin binding activity. An ELISA screen against fibrinogen (immobilized to the plate by the biotin/streptavidin protocol used for DD(E)) was a check against fibrinogen binding and confirmed that the negative selection procedure detailed in Example 2 had been effective. Finally, ELISAs to assay binding to immobilized HSA (passively bound to the polystyrene plate) and a target-free microtiter plate were controls to eliminate phage that bound promiscuously or nonspecifically.
B1: no binding. B2: no binding. B3: no binding. B4: no binding. B5: no binding. B6: no binding. B7: no binding. B8: no binding. B9: no binding. B10: no binding. B11: no binding.

These molecules were tested against T2, fibrin (assay: dried fibrin plate ELISA of phage isolates). Details: phage isolates from TN7 library; symbols not defined.
Format: binding
Description: For screening libraries to isolate binding moieties for fibrin, two fibrin targets, i.e., synthetic fibrin clots and then a soluble fibrin fragment, DD(E), were prepared. To prepare fibrin for screening, dilute fibrin clots were formed in the wells of a 96-well plate, dried down to a thin layer, and then rehydrated prior to library screening. In a typical procedure, a 0.15 mg/ml fibrinogen solution was prepared in TBS buffer (50 mM Tris, 150 mM NaCl, pH 7.4). A solution containing 2 U/ml thrombin, 10 mM CaCl2, and 5 mM ε-aminocaproic acid in TBS was prepared. The fibrinogen solution and thrombin solution were mixed 1:1 in the wells of a 96-well plate, aliquoting 25 μL of each solution in each well (total volume=50 μL). The plates were evaporated to dryness by incubating them at 37° C. overnight. Just before a phage library was added to the dried fibrin target, the fibrin wells were washed three times for 10 minutes with phage blocking buffer (TBS containing 2 mM CaCl2, 0.1% Tween-20, and 0.1% human serum albumin (HSA)).
as §1, with “(˜10^9” for “(˜10⁹”, “CaCl2,” for “CaCl₂,”, “H2O2).” for “H₂O₂).”
The amino acid sequence data from these phage isolates were sorted according to the degree of similarity and response in the fibrin ELISA assay.
With “9 (LPCDYYGTCLD; synthetic fibrin binding peptide) [compound 9]” the relative binding was “+ + +”. For “8 (RPCDYYGTCFD; synthetic fibrin binding peptide) [compound 8]”, the relative binding was “+ + +”.

These molecules were tested against T3, human serum albumin (human, UniProt P02768 25-609) (assay: phage ELISA on immobilised HSA). Details: not given.
T3 construct: also called HSA
T3 sequence (P02768 25-609 limits assumed): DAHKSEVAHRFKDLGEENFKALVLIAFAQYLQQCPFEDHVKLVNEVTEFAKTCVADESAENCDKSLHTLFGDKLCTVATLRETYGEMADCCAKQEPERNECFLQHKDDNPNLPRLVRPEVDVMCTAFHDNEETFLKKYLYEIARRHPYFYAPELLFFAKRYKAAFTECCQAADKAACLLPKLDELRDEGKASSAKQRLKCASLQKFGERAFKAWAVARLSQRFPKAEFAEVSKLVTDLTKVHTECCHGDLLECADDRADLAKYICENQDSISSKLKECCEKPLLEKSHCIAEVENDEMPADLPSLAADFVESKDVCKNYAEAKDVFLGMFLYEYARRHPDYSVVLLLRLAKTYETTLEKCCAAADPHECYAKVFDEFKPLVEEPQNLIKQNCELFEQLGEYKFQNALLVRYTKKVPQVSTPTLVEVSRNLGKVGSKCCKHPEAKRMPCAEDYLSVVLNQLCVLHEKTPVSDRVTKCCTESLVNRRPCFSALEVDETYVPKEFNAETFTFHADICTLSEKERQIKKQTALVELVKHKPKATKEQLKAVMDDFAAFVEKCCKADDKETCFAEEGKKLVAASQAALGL
Description: as §1, §2
B1: no binding. B2: no binding. B3: no binding. B4: no binding. B12: no binding. B5: no binding. B6: no binding. B7: no binding. B8: no binding. B9: no binding. B10: no binding. B11: no binding.
